Results as given in US20220119536A1 (Boehringer Ingelheim, published 2022).
Values joined by “and” are separate entries in the source; they are usually repeats but may differ in a detail not shown here. Equal values may be shown once. Read-outs that look alike come from different tables or passages of the source.

B1: TPP-13788 (B20 IgG) (antibody, V domains shown)
VH: EVQLVESGGGLVQPGGSLRLSCAASGFTINASWIHWVRQAPGKGLEWVGAIYPYSGYTNYADSVKGRFTISADTSKNTAYLQMNSLRAEDTAVYYCARWGHSTSPWAMDYWGQGTLVTVSS
VL: DIQMTQSPSSLSASVGDRVTITCRASQVIRRSLAWYQQKPGKAPKLLIYAASNLASGVPSRFSGSGSGTDFTLTISSLQPEDFATYYCQQSNTSPLTFGQGTKVEIK
B2: TPP-14938 (bispecific antibody, human IgG1, kappa, L234A L235A)
light: DIQMTQSPSSLSASVGDRVTITCRASQVIRRSLAWYQQKPGKAPKLLIYAASNLASGVPSRFSGSGSGTDFTLTISSLQPEDFATYYCQQSNTSPLTFGQGTKVEIKRTVAAPSVFIFPPSDEQLKSGTASVVCLLNNFYPREAKVQWKVDNALQSGNSQESVTEQDSKDSTYSLSSTLTLSKADYEKHKVYACEVTHQGLSSPVTKSFNRGEC
heavy: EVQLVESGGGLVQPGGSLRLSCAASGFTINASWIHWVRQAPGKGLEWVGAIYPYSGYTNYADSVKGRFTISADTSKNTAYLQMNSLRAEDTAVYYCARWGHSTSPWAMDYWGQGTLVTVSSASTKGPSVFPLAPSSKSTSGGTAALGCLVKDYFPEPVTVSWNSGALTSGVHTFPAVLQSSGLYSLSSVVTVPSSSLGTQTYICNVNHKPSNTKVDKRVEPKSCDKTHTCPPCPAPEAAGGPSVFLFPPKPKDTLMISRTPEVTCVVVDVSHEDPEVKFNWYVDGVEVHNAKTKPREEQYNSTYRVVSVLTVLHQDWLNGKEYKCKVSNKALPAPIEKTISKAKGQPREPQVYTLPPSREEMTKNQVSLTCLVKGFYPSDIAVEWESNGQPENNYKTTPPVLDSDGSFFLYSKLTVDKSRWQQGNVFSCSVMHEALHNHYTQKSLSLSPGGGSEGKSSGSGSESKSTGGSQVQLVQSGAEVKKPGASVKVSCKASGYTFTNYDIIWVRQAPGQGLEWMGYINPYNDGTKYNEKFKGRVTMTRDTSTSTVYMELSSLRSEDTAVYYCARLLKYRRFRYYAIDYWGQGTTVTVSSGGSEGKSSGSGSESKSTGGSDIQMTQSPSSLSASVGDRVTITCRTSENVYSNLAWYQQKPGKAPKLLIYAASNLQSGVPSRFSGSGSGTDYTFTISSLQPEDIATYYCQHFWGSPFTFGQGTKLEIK
B3: TPP-14939 (bispecific antibody, human IgG1, kappa, L234A L235A)
light: DIQMTQSPSSLSASVGDRVTITCRASQVIRRSLAWYQQKPGKAPKLLIYAASNLASGVPSRFSGSGSGTDFTLTISSLQPEDFATYYCQQSNTSPLTFGQGTKVEIKRTVAAPSVFIFPPSDEQLKSGTASVVCLLNNFYPREAKVQWKVDNALQSGNSQESVTEQDSKDSTYSLSSTLTLSKADYEKHKVYACEVTHQGLSSPVTKSFNRGEC
heavy: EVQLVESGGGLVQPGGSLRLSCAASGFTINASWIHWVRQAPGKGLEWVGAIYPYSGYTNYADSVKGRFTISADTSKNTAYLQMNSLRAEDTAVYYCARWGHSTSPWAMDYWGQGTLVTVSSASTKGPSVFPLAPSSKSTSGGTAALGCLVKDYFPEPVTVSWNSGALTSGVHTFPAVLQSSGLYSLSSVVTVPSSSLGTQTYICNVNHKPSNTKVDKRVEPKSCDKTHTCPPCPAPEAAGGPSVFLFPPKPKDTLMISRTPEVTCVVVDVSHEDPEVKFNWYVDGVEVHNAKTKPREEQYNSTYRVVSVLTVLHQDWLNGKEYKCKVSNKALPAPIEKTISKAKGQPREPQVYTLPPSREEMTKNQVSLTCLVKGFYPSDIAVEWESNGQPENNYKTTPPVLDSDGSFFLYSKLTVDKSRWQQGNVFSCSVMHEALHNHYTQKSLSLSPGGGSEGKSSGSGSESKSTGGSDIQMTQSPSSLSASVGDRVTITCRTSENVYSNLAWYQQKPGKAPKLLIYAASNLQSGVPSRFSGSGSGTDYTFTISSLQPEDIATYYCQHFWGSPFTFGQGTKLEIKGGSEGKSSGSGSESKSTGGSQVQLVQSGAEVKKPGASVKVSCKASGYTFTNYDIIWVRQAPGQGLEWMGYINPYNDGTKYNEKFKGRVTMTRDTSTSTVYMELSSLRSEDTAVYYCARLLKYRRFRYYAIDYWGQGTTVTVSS
B4: TPP-11736 (bispecific antibody, human IgG1, kappa, L234A L235A)
light: DIQMTQSPSSLSASVGDRVTITCRTSENVYSNLAWYQQKPGKAPKLLIYAASNLQSGVPSRFSGSGSGTDYTFTISSLQPEDIATYYCQHFWGSPFTFGQGTKLEIKRTVAAPSVFIFPPSDEQLKSGTASVVCLLNNFYPREAKVQWKVDNALQSGNSQESVTEQDSKDSTYSLSSTLTLSKADYEKHKVYACEVTHQGLSSPVTKSFNRGEC
heavy: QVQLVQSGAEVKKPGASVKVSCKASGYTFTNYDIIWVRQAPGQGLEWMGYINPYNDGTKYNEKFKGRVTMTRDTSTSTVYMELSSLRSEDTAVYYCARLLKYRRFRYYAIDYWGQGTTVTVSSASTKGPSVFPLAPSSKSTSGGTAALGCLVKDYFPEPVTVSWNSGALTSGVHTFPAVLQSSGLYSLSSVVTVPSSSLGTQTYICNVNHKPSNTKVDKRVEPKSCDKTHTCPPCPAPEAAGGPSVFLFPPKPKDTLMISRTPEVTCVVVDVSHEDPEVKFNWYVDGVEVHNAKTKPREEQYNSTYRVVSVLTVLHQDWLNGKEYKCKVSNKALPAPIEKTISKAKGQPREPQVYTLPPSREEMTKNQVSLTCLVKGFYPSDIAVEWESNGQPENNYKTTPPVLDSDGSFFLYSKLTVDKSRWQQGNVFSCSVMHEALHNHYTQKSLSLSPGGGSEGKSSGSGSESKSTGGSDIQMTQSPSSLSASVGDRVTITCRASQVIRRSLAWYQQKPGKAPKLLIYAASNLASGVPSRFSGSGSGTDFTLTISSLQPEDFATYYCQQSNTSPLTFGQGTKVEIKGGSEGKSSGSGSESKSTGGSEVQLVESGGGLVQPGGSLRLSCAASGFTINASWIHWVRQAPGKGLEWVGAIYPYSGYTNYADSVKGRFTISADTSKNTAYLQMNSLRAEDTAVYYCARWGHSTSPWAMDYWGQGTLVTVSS
B5: TPP-11738 (bispecific antibody, human IgG1, kappa, L234A L235A)
light: DIQMTQSPSSLSASVGDRVTITCRTSENVYSNLAWYQQKPGKAPKLLIYAASNLQSGVPSRFSGSGSGTDYTFTISSLQPEDIATYYCQHFWGSPFTFGQGTKLEIKRTVAAPSVFIFPPSDEQLKSGTASVVCLLNNFYPREAKVQWKVDNALQSGNSQESVTEQDSKDSTYSLSSTLTLSKADYEKHKVYACEVTHQGLSSPVTKSFNRGEC
heavy: not shown
B6: TPP-14937 (bispecific antibody, human IgG1, kappa, L234A L235A)
light: DIQMTQSPSSLSASVGDRVTITCRTSENVYSNLAWYQQKPGKAPKLLIYAASNLQSGVPSRFSGSGSGTDYTFTISSLQPEDIATYYCQHFWGSPFTFGQGTKLEIKRTVAAPSVFIFPPSDEQLKSGTASVVCLLNNFYPREAKVQWKVDNALQSGNSQESVTEQDSKDSTYSLSSTLTLSKADYEKHKVYACEVTHQGLSSPVTKSFNRGEC
heavy: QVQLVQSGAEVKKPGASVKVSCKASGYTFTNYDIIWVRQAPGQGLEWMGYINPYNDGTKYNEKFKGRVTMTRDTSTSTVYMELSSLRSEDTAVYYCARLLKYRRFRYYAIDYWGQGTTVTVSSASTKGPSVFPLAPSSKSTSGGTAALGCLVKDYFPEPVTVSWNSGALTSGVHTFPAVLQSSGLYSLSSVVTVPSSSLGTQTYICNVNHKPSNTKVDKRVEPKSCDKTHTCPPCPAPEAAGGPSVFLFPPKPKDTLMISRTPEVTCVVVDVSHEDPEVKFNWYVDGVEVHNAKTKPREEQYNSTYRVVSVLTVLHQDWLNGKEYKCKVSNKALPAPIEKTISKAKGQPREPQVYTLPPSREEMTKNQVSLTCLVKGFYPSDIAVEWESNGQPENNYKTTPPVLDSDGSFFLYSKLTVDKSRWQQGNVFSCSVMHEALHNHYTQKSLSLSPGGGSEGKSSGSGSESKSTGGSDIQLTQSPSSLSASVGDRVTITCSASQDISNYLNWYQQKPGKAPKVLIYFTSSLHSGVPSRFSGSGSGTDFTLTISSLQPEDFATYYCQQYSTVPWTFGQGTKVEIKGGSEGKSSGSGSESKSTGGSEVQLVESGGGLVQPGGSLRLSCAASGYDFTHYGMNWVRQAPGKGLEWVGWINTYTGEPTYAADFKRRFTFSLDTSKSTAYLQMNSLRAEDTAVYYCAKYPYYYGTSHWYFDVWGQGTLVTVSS
B7: TPP-14936 (bispecific antibody, human IgG1, kappa, L234A L235A)
light: DIQMTQSPSSLSASVGDRVTITCRTSENVYSNLAWYQQKPGKAPKLLIYAASNLQSGVPSRFSGSGSGTDYTFTISSLQPEDIATYYCQHFWGSPFTFGQGTKLEIKRTVAAPSVFIFPPSDEQLKSGTASVVCLLNNFYPREAKVQWKVDNALQSGNSQESVTEQDSKDSTYSLSSTLTLSKADYEKHKVYACEVTHQGLSSPVTKSFNRGEC
heavy: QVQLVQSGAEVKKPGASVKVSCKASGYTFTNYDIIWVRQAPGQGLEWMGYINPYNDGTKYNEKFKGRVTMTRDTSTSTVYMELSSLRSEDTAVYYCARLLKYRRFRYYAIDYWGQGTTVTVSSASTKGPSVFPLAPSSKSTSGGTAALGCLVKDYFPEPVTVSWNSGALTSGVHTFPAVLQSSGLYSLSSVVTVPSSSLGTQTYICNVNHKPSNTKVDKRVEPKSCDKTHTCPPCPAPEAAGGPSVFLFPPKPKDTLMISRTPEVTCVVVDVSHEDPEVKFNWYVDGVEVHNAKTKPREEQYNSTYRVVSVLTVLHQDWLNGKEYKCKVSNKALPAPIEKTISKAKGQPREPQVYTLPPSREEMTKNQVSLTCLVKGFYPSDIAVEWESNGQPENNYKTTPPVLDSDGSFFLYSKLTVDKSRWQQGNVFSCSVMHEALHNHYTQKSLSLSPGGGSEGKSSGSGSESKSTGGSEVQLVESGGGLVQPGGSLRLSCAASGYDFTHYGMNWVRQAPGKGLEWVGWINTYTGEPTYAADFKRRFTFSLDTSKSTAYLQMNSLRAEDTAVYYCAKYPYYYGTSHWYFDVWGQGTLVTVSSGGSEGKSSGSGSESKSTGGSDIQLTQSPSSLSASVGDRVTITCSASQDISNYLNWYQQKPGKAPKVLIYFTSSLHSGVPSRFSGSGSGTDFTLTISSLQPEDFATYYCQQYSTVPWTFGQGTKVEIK
B8: human BDNF (ligand, UniProt P23560 129-247, looked up)
chain: HSDPARRGELSVCDSISEWVTAADKKTAVDMSGGTVTVLEKVPVSKGQLKQYFYETKCNPMGYTKEGCRGIDKRHWNSQCRTTQSYVRALTMDSKKRIGWRFIRIDTSCVCTLTIKRGR

Columns and labels:
Assay in all cases: cell-based or functional assay
human VEGF-A [1] = target: T1, human VEGF-A (human, UniProt P15692-4 27-191)
T1 sequence (P15692 other isoform, or with tags, fused parts or gaps limits assumed): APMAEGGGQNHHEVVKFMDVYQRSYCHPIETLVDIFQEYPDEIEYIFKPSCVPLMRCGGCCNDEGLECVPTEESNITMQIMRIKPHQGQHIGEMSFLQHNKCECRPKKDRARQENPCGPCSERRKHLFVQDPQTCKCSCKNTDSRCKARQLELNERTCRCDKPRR

human VEGF-A [2] = target: T1, human VEGF-A; remark: listed apart in the source
human VEGF-A [3] = target: T1, human VEGF-A; remark: listed apart in the source
human VEGF-A [4] = target: T1, human VEGF-A; remark: listed apart in the source
human VEGF-A [5] = target: T1, human VEGF-A; remark: listed apart in the source
human VEGF-A [6] = target: T1, human VEGF-A; remark: listed apart in the source
human TrkB receptor [7] = target: T2, human TrkB receptor (human, UniProt Q16620 32-822)
T2 sequence (Q16620 32-822): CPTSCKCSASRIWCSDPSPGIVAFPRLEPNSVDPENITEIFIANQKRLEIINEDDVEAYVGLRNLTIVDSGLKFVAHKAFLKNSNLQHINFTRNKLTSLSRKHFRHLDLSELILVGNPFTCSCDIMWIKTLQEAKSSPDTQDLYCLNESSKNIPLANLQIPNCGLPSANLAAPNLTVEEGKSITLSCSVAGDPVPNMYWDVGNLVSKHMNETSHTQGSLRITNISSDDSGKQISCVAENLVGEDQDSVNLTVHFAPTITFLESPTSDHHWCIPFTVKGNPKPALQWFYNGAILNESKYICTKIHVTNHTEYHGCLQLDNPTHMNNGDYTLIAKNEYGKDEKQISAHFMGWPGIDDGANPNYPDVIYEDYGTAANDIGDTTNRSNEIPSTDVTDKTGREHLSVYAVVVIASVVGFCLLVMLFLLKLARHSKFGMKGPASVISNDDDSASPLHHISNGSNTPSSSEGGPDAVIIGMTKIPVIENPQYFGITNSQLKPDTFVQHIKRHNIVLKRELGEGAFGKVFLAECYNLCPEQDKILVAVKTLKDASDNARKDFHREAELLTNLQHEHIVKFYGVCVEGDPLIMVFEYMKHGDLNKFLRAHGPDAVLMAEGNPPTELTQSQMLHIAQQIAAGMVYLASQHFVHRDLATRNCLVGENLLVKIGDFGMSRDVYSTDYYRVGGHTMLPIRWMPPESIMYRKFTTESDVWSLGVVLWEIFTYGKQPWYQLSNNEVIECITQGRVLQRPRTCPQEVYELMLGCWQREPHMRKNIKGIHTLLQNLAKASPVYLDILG

human TrkB receptor [8] = target: T2, human TrkB receptor; remark: listed apart in the source

Binder	concentration for full inhibition of VEGF-induced HRMEC proliferation (human VEGF-A [1])	Bottom plateau (ERK1/2 phosphorylation, counts) (human VEGF-A [3])	Bottom plateau (Src phosphorylation, counts) (human VEGF-A [3])	IC50 (ERK1/2 phosphorylation) (human VEGF-A [3])	IC50 (Src phosphorylation) (human VEGF-A [3])	Bottom plateau (ERK1/2 phosphorylation, counts) (human VEGF-A [4])	Bottom plateau (Src phosphorylation, counts) (human VEGF-A [4])	IC50 (ERK1/2 phosphorylation) (human VEGF-A [4])	IC50 (Src phosphorylation) (human VEGF-A [4])	Bottom plateau (ERK1/2 phosphorylation, counts) (human VEGF-A [5])	Bottom plateau (Src phosphorylation, counts) (human VEGF-A [5])	IC50 (ERK1/2 phosphorylation) (human VEGF-A [5])	IC50 (Src phosphorylation) (human VEGF-A [5])	Bottom plateau (ERK1/2 phosphorylation, counts) (human VEGF-A [6])	Bottom plateau (Src phosphorylation, counts) (human VEGF-A [6])	IC50 (ERK1/2 phosphorylation) (human VEGF-A [6])	IC50 (Src phosphorylation) (human VEGF-A [6])	other results
B1	–	–	–	–	–	–	–	–	–	–	–	–	–	–	–	–	–	fold increase of VEGF-A scavenging potency vs. TPP-11736 (human VEGF-A [1]): ~3 fold; IC50 (ERK1/2 phosphorylation) (human VEGF-A [2]): 3 nM; IC50 (p38 MAPK phosphorylation) (human VEGF-A [2]): 2.4 nM
B2	> 16 nM	1330 counts	5480 counts	2.71 nM	1.8 nM	1330 counts	5480 counts	2.71 nM	1.8 nM	–	–	–	–	–	–	–	–	–
B3	> 16 nM	1140 counts	5540 counts	2.51 nM	1.16 nM	1140 counts	5540 counts	2.51 nM	1.16 nM	–	–	–	–	–	–	–	–	–
B4	–	3690 counts	6300 counts	5.59 nM	3.97 nM	3690 counts	6300 counts	5.59 nM	3.97 nM	3690 counts	6300 counts	5.6 nM	4 nM	3690 counts	6300 counts	5.59 nM	3.97 nM	IC50, inhibition of VEGF-induced ERK1/2 phosphorylation (human VEGF-A [1]): ~4 nM and ~10 nM; IC50, inhibition of VEGF-induced p38 MAPK phosphorylation (human VEGF-A [1]): ~7.4 nM; IC50 (ERK1/2 phosphorylation) (human VEGF-A [2]): 9.1 nM; IC50 (p38 MAPK phosphorylation) (human VEGF-A [2]): 7.7 nM
B5	–	–	–	–	–	–	–	–	–	–	–	–	–	–	–	–	–	IC50, inhibition of VEGF-induced ERK1/2 phosphorylation (human VEGF-A [1]): ~4 nM and ~10 nM
B6	4 nM	–	–	–	–	–	–	–	–	-927 counts	4570 counts	5.6 nM	5.8 nM	-926 counts	4570 counts	5.58 nM	5.83 nM	–
B7	1 nM	–	–	–	–	–	–	–	–	-341 counts	4650 counts	3.5 nM	3.4 nM	-340 counts	4650 counts	3.49 nM	3.4 nM	–
B8	–	–	–	–	–	–	–	–	–	–	–	–	–	–	–	–	–	EC50 (pERK) (human TrkB receptor [7]): 0.507 nM; EC50 (pTrkB) (human TrkB receptor [7]): 1.22 nM; EC50 (pERK) (human TrkB receptor [8]): 0.282 nM; EC50 (pTrkB) (human TrkB receptor [8]): 1.28 nM
